In paper PMC4177672, “The Vip1 Inositol Polyphosphate Kinase Family Regulates Polarized Growth and Modulates the Microtubule Cytoskeleton in Fungi” (PLoS Genetics, 2014):

Experiments:
GST-Vip1^1-535 = biological target: T1, GST-Vip1^1-535 (Saccharomyces cerevisiae, UniProt Q06685); assay: IP7 formation, PAGE with Toluidine Blue stain; format: biochemical; settings: 1 µg protein; positive control enzyme
T1 construct: kinase domain residues 1-535, GST tag kept, E. coli Rosetta, purified

[1] = test system: O=P(O)(O)O[C@H]1[C@H](OP(=O)(O)O)[C@@H](OP(=O)(O)O)[C@H](OP(=O)(O)O)[C@@H](OP(=O)(O)O)[C@H]1OP(=O)(O)O; assay: purified protein; settings: 0-300 µM IP6; ATP-dependent; 2 µg protein; 6 h

T1 sequence (Q06685 1-535): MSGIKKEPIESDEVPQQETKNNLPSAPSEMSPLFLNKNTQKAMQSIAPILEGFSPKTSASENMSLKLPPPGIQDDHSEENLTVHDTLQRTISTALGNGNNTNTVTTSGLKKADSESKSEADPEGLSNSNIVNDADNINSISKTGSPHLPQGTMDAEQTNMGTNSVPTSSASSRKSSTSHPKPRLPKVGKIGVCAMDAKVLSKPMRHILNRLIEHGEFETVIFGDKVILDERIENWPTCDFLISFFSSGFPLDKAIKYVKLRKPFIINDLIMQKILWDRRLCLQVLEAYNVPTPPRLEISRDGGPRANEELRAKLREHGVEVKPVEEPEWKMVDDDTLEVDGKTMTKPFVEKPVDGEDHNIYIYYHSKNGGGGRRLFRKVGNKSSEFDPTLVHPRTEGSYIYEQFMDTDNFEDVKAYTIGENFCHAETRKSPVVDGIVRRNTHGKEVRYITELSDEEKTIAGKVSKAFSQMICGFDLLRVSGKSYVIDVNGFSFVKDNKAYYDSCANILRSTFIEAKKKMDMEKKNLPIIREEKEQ

Compound: O=P(O)(O)O[C@H]1[C@H](OP(=O)(O)O)[C@@H](OP(=O)(O)O)[C@H](OP(=O)(O)O)[C@@H](OP(=O)(O)O)[C@H]1OP(=O)(O)O [IP6]
- IP7 formation, PAGE with Toluidine Blue stain (GST-Vip1^1-535): S. cerevisiae Vip1 for which enzymatic activity had been demonstrated was used as a positive control

Compound: GST-Asp1 (full length) (Schizosaccharomyces pombe 972h-)
- Km [1]: 58.18 µM

Compound: GST-Asp1 (full length) (Schizosaccharomyces pombe 972h-; H397A)
- Km [1]: 57.32 µM
